Experimental data reported in article PMC3269570 (European Biophysics Journal, 2011).

Target: the molecule itself
Experiment: cross-linking

MQRINKNVVLALLTLTSSAFLLFQLYYYKHYLSARN [N-terminal transmembrane domain of Fukutin-I (FK1TMD), unlabelled peptide] was tested, and the “stoichiometry N” value was 2.
